Positions count from the first letter of the chain named. Read-outs that look alike come from different tables or passages of the source.
T1: FLAG-tagged recombinant human Ang1 (Alexis Biochemicals) (human, UniProt Q15389 20-498, limits assumed)
T1 construct: Bought reagent; also called hAng1; FLAG-hAng1
T1 sequence (looked up): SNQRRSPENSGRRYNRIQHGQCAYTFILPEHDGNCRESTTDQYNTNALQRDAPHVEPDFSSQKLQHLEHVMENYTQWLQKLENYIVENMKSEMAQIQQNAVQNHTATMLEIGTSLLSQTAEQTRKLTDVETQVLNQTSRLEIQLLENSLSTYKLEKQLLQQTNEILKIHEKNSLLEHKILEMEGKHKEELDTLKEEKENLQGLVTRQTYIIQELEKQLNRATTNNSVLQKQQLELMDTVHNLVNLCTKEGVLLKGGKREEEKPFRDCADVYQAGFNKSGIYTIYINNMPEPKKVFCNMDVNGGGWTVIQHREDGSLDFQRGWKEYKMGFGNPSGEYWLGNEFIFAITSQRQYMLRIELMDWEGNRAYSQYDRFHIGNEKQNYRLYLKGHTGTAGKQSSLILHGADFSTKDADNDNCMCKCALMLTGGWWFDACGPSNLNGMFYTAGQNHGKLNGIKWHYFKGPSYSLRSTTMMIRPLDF

T2: recombinant mouse Ang2-FLD (mouse, UniProt O35608 275-496, limits assumed)
T2 construct: domain: FLD
T2 sequence (looked up): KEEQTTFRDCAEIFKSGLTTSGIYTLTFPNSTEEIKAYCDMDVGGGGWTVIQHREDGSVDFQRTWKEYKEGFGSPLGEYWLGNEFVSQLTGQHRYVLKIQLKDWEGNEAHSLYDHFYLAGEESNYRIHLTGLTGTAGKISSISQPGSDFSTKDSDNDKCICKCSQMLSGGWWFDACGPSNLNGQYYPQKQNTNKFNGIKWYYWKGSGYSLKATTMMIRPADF

T3: recombinant rat Ang2-FLD (rat, UniProt O35462 275-496, limits assumed)
T3 construct: domain: FLD
T3 sequence (looked up): T2 sequence (looked up) with Q4K, I35V, V43M, G91S, Q92G, N107S, D114E, A119S, S168T

T4: recombinant human Ang2-FLD (human, UniProt O15123 275-496, limits assumed)
T4 construct: domain: FLD
T4 sequence (looked up): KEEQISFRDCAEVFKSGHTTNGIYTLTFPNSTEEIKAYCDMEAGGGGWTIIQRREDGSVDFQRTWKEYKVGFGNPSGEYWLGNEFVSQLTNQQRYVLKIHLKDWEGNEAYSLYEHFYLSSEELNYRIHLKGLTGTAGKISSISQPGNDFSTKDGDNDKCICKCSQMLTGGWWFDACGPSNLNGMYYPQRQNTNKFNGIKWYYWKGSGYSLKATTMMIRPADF

T5: recombinant cynomolgus Ang2-FLD (cynomolgus, UniProt A0A2K5VNX6 275-496)
T5 construct: domain: FLD; also called cyno Ang2-FLD
T5 sequence: T4 sequence (looked up) with E2G, I23V, F28L, I35V, G154A, A212G, D221G

T6: FLAG-tagged mouse Ang2 (mouse, UniProt O35608 19-496)
T6 construct: N-terminally FLAG-tagged, conditioned medium of HEK293T cells; also called mAng2; FLAG-mAng2
T6 sequence: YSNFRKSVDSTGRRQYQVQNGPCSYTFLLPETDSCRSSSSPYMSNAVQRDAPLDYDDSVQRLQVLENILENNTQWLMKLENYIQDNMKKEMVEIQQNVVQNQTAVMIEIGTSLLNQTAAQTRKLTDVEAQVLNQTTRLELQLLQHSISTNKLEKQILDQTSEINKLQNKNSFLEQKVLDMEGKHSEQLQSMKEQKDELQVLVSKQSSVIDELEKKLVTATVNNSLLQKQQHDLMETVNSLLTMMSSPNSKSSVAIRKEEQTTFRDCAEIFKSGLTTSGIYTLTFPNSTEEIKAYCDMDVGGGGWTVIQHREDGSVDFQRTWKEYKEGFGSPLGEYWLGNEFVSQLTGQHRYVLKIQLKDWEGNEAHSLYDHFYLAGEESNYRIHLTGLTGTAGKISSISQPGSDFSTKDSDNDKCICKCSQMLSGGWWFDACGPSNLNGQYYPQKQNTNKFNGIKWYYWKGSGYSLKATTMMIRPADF

T7: FLAG-tagged cynomolgus Ang2 (cynomolgus, UniProt O15123 19-496 (human entry), limits assumed)
T7 construct: N-terminally FLAG-tagged, conditioned medium of HEK293T cells; also called cAng2; FLAG-cAng2
T7 chain: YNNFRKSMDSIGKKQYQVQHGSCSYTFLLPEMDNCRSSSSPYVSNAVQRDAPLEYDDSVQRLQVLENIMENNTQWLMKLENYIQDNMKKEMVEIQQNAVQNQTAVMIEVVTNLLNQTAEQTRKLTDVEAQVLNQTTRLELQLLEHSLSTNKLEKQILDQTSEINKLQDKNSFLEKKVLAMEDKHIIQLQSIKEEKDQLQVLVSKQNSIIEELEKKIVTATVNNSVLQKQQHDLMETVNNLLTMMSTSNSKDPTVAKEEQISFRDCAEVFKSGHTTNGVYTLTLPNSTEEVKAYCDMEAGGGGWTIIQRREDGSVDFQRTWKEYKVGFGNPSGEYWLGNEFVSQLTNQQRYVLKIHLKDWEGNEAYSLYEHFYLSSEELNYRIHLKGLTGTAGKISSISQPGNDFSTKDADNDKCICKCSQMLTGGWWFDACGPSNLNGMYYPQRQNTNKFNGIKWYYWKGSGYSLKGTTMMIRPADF

B1: VHH 25B01 (VHH)
VHH: EVQLVESGGGLVQAGGSLRLSCAASGFTFDDYAIGWFRQAPGKEREGVSCISSSDGSTYYADSVKGRFTISSDNAKNTVYLQMNSLKPEDTAVYYCAAAWGASRLPIGTMPPYEYDYWGQGTQVTVSS
notes: Tested as periplasmic extract; also called 025B01; not shown: C-terminal c-myc tag and His6 tag
B2: VHH 00921 (VHH, not shown: small tags and cut ends)
VHH: EVQLVESGGGLVQPGGSLRLSCAASGFTFDDYALGWFRQAPGKEREGVSCIRCSGGSTYYADSVKGRFTISSDNSKNTVYLQMNSLRPEDTAVYYCAASIVPRSKLEPYEYDAWGQGTLVTVSS
B3: VHH 1E01 (VHH)
VHH: EVQLVESGGGLVQPGGSLRLSCVHSGTISSTHAMGWYRQAPGKQREHVATFTNRGSTYYAGSVKGRFTISRDNAKNTMYLQMNSLKPEDTAVYYCNTGPYWGQGTQVTVSS
notes: Tested as periplasmic extract; also called 001E01; not shown: C-terminal c-myc tag and His6 tag
B4: VHH 00928 (VHH, not shown: small tags and cut ends)
VHH: EVQLVESGGGLVQPGGSLRLSCAASGFALDYYAIGWFRQAPGKEREGVSCISSSGGITYYADSVKGRFTISRDNSKNTVYLQMNSLRPEDTAVYYCATDSGGYIDYDCSGLGYDYWGQGTLVTVSS
B5: VHH 12A08 (VHH)
VHH: EVQLVESGRGLVQAGGSLRLSCAASGSIFSINAMLWYRQAPGKQRELVAAITSGGSTNYADSVKGRFTISRDNAKNTVYLQMNSLKPEDTAVYYCAADSDYSSDYYYWGQGTQVTVSS
notes: Tested as periplasmic extract; also called 012A08; not shown: C-terminal c-myc tag and His6 tag

Experiments:
[1] = molecular target: T1, FLAG-tagged recombinant human Ang1 …; test: competition ELISA, periplasmic extract, FLAG-hAng1 on hTie2/Fc
Method: In brief, human Tie2/Fc chimera (R&D Systems, Minneapolis, Minn., USA) is biotinylated using N-hydroxysulfosuccinimide ester of biotin (Thermo Fisher Scientific, Rockford, Ill., USA). […] To this mixture, the Acceptor beads and 0.3 nM biotinylated human Tie2/Fc chimeras are added and further incubated for 2 hours at room temperature. Finally, streptavidin conjugated Donor beads (Perkin Elmer, Waltham, Mass., US) are added and the mixture is incubated for an additional 2 hours at room temperature. Assay buffer is PBS+0.03% Tween-20+0.1% BSA. Fluorescence is measured using the Envision Multilabel Plate reader (Perkin Elmer, Waltham, Mass., USA) using an excitation wavelength of 680 nm and an emission wavelength of 520 nm. […] In brief, human or mouse Tie2/Fc chimera (R&D Systems, Minneapolis, Minn., USA) are immobilized at 2 μg/mL overnight at 4° C. in a 96-well MaxiSorp plate (Nunc, Wiesbaden, Germany). Wells are blocked with a 1% casein solution. […] This mixture is added to the Tie2/Fc coated well and incubated for 2 hours at room temperature. Residual binding of Ang is detected using HRP-conjugated anti-FLAG M2 antibody (Sigma, St Louis, Mo., USA).

[2] = molecular target: T2, recombinant mouse Ang2-FLD; test: SPR (Biacore T100), VHH immobilized, Ang2-FLD injected
Method: (§1) In brief, VHH and benchmark compounds are immobilized on a CM5 chip via amine coupling. […] Ang2-FLD species are allowed to associate for 2 min and to dissociate for 20 min at a flow rate of 45 μL/min. In between injections, the surfaces are regenerated with a 10 sec pulse of 25 mM NaOH and 60 sec stabilization period. Association/dissociation data are evaluated by fitting a 1:1 interaction model (Langmuir binding). The affinity constant KD is calculated from resulting association and dissociation rate constants kₐ and kd and are depicted in Table 8.

recombinant rat Ang2-FLD = molecular target: T3, recombinant rat Ang2-FLD; test: as above
Method: as §1

[3] = molecular target: T4, recombinant human Ang2-FLD; test: as above
Method: as §1

[4] = molecular target: T5, recombinant cynomolgus Ang2-FLD; test: as above
Method: as §1

FLAG-tagged mouse Ang2 [5] = molecular target: T6, FLAG-tagged mouse Ang2; test: competition ELISA: FLAG-mAng2 binding to coated mTie2-Fc
Method: (§2) In brief, 2 μg/mL of recombinant mouse Tie2-Fc or cyno Tie2-Fc is coated overnight at 4° C. in a 96-well MaxiSorp plate (Nunc, Wiesbaden, Germany). Coated wells are blocked with a 1% casein solution.

[6] = molecular target: T7, FLAG-tagged cynomolgus Ang2; test: competition ELISA: FLAG-cAng2 binding to coated cTie2-Fc
Method: as §2

[7] = molecular target: T7, FLAG-tagged cynomolgus Ang2; test: as above
Method: as §2

FLAG-tagged mouse Ang2 [8] = molecular target: T6, FLAG-tagged mouse Ang2; test: competition ELISA: FLAG-mAng2 binding to coated mTie2-Fc; remark: listed apart in the source
Method: as §2

Binder	% inh [1]	Kd [2]	koff [2]	kon [2]	Kd (recombinant rat Ang2-FLD)	koff (recombinant rat Ang2-FLD)	kon (recombinant rat Ang2-FLD)	Kd [3]	koff [3]	kon [3]	Kd [4]	koff [4]	kon [4]	IC50 (FLAG-tagged mouse Ang2 [5])	IC50 [6]	IC50 [7]	IC50 (FLAG-tagged mouse Ang2 [8])
B1	4%	–	–	–	–	–	–	–	–	–	–	–	–	–	–	–	–
B2	–	7.5 nM	0.025 s⁻¹	3.3e+06 M⁻¹ s⁻¹	42 nM	0.049 s⁻¹	1.2e+06 M⁻¹ s⁻¹	6.6 nM	0.027 s⁻¹	4e+06 M⁻¹ s⁻¹	2.3 nM	0.025 s⁻¹	1.1e+07 M⁻¹ s⁻¹	27 nM	37 nM	–	–
B3	4%	–	–	–	–	–	–	–	–	–	–	–	–	–	–	–	–
B4	–	0.17 nM	7.3e-05 s⁻¹	420000 M⁻¹ s⁻¹	0.29 nM	5.4e-05 s⁻¹	180000 M⁻¹ s⁻¹	0.064 nM	4e-05 s⁻¹	620000 M⁻¹ s⁻¹	0.05 nM	4.9e-05 s⁻¹	970000 M⁻¹ s⁻¹	–	–	0.39 nM	0.2 nM
B5	3%	–	–	–	–	–	–	–	–	–	–	–	–	–	–	–	–

From patent US20230203146A1 (Boehringer Ingelheim, published 2023)
